Assay results as given in US7807363B2, “Superoxide dismutase-2 expression for glaucoma diagnosis” (Alcon Research, Ltd., priority 2006, dated 2010).

System: SOD-2 mRNA in NTM-115 cells
Experiment: RT-qPCR of SOD-2 mRNA in NTM-115 TM cells treated with SAA
Assay type: cell-based
Conditions: rhSAA 40 ug/ml, 24 hr, compared to untreated cells, FIG. 4
Method: SOD-2 mRNA levels in FIG. 1 were measured using real-time quantitative PCR (RT-qPCR). In the RT-qPCR protocol used in one embodiment of the present invention, total RNA was extracted from cultured TM cells or from RNAlater-preserved ocular tissues by using a commercial kit of RNAqueous-4 PCR (Ambion, Austin, Tex.) according to the manufacturer's instructions. RNA quality was assessed by agarose gel electrophoresis or with a 2100 Bioanalyer (Agilent). cDNA was synthesized using MultiScribe reverse transcriptase and random hexamers (PE Applied Biosystems, Foster City, Calif.). Real-time PCR was performed using the ABI Prism 7700 Sequence Detection System according to the manufacturer's instructions (Applied Biosystems, Foster City, Calif.). […] Relative RNA concentrations were determined by comparison to a standard curve generated by different dilutions of TM cell cDNA. […]
In this embodiment, a TM cell line is treated with SAA, which causes overexpression of SOD-2. After addition of the test compound or appropriate vehicle control, the levels of SOD-2 are measured in the test and control replicates via qPCR using the protocol given in the description accompanying FIG. 1. […]

B1: serum amyloid A (protein, UniProt P0DJI8 19-122, looked up)
Serum amyloid A-1 protein: RSFFSFLGEAFDGARDMWRAYSDMREANYIGSDKYFHARGNYDAAKRGPGGAWAAEVITDARENIQRFFGHGAEDSLADQAANEWGRSGKDPNHFRPAGLPEKY
notes: acute-phase reactant protein; recombinant human SAA used to induce SOD-2 overexpression in TM cells
In the case of B1, the “SOD-2 mRNA levels” value is reported as “increased levels of SOD-2 mRNA”.
